This note sets out measurements from patent US20160251695.

The chains are these.
T1: α-fructosyl-valyl-histidyl-leucyl-threonyl-proryl-glutamic acid
T1 chain: VHLTPE

B1: CFP-T7-H2-62N (protein)
chain: MTSNRADTRVIVVGGGGTIGSSTALHLVRSGYAPANITVLDTFEIPSAQSAGHDLNKIMGINLRNKVDLQMSLEARQMWKEDELFQPFFHNTGRMDCEHTPEGIEDLKKLYQALHDAGAGLEKTHAWLDNEDEILSKMPLLQRDQIQGWKAIWSQDGGWLAAAKAINAIGQFLKERGVKFGFGGAGSFKQPLFDDEGTTCIGVETADGTKYYADKVVLAAGAWSPTLVDLEDQCCSKAWVYAHIQLTPEEAAEYKGVPVVYNGEFGFFFEPDEFGVIKVCDEFPGFSRFKEHQPYGAPSPKRISVPRSHAKHPTDTYPDASEVSIKKAIATFLPRFQDKELFNRALCWCTDTADAALLMCEHPKWKNFILATGDSGHSFKILPNVGKYVVELIEGRLPEEMAYQWRWRPGGDALKSRRAAPPKDLADMPGWKHDPKL
B2: CFP-T7-H27 (protein)
chain: B1 chain with N62D, L63K, D106K, A113K
B3: CFP-T7-H8 (protein)
chain: B1 chain with N62D, R64E
B4: CFP-T7-H36 (protein)
chain: B1 chain with N62D, L63H, D68N, E102K, D106K, A113K, A355S
B5: CFP-T7-H25 (protein)
chain: B1 chain with N62D, L63D, D106K, A113K
B6: CFP-T7-H13 (protein)
chain: B1 chain with N62D, A113K
B7: CFP-T7-H11 (protein)
chain: B1 chain with N62D, D106K
B8: CFP-T7-H26 (protein)
chain: B1 chain with N62D, L63H, D106K, A113K
B9: CFP-T7-H14 (protein)
chain: B1 chain with N62D, A113R
B10: CFP-T7-H2-62Q (protein)
chain: B1 chain with N62Q
B11: CFP-T7-H7 (protein)
chain: B1 chain with N62D, R64A
B12: CFP-T7-H10 (protein)
chain: B1 chain with N62D, D106A
B13: CFP-T7-H28 (protein)
chain: B1 chain with N62D, L63H, E102K, D106K, A113K
B14: CFP-T7-H37 (protein)
chain: B1 chain with N62D, L63H, D68N, E102K, D106K, A113K, A355S, A356T
B15: CFP-T7-H2-62E (protein)
chain: B1 chain with N62E
B16: CFP-T7-H24 (protein)
chain: B1 chain with N62D, L63A, D106K, A113K
B17: CFP-T7-H29 (protein)
chain: B1 chain with N62D, L63H, D106K, A113K, A419K
B18: CFP-T7-H12 (protein)
chain: B1 chain with N62D, D106R
B19: CFP-T7-H6 (protein)
chain: B1 chain with N62D
B20: CFP-T7-H2 (protein)
chain: B1 chain with N62A
B21: CFP-T7-H9 (protein)
chain: B1 chain with N62D, R64H
B22: fructosyl peptide oxidase derived from Eupenicillium terrenum (protein)
chain: MAHSRASTKVVVVGGGGTIGSSTALHLIRSGYTPSNITVLDVYKTPSLQSAGHDLNKIMGIRLRNGPDLQLSLESLDMWQNDELFKPFFHQVGMIDCSSSKEGIENLRRKYQTLLDAGIGLEKTNVWLESEDEILAKAPNFTREQVKGWKGLFCTDGGWLAAAKAINAIGIFLQDKGVKFGFGDAGTFQQPLFAADGKTCIGLETTDGTKYFADKVVLAAGAWSPTLVDLEDQCVSKAWVFAHIQLTPKEADAYKNVPVVYDGEYGFFFEPDEYGVIKVCDEFPGFSRFKLHQPYGAASPKMISVPRSHAKHPTDTYPDASEVTIRKAIARFLPEFKDKELFNRTMCWCTDTADANLLICEHPKWKNFILATGDSGHSFKLLPNIGKYVVELLEGSLSQEMAGAWRWRPGGDALRSRRGAPAKDLAEMPGWKHDAHL
B23: EFP-T5-R62D (protein)
chain: B22 chain with R62D
B24: fructosyl amino acid oxidase derived from Aspergillus oryzae RIB40 (protein)
chain: MTVTKSSSILIIGAGTWGASTALHLGRRGYTNVTVLDPYTVPSAISAGNDVNKIISSGQYSNKKDEIEVNEILAEEAFKGWTTDPLFKPYYHDTGVVMSACSSAGLDRLGIRVRPEEEPDVSEVTKPEHFRQLAPAVLKGNFPGWRGYHIRSNAGWAHARNALVAAIREAEKLGVKFVTGTQGRVITLIFENNDVKGAVTADGKIWRAEQTVLCAGANAAQFLDFKDQLRPTAWTLAHIRLKPEERALYKNLPVIFNIEKGFFFEPDEERGEIKICDEHPGYTNMVKSADGHLTSLPFEKTQIPKESEARVRALLSETMPQLADRPFSFARVCWCADTANREFIIDRHPEHPSLVLGCGASGRGFKYLPSIGNLIVDAIEDKVPEKVHKLTRWSPDIAVDRKWRDTLGRFGGPNRVMDFHDVKEWTNVQNKDTAKL
B25: ketoamine oxidase derived from Neocosmospora vasinfecta (protein)
chain: MTTPRKETTVLIIGGGGTIGSSTALHLLRAGYTPSNITVLDTYPIPSAQSAGNDLNKIMGIRLRNKVDLQLSLEARDMWRNDALFRPFFHNTGRLDCESSAEGVEGLRREYQKLVEAGVGLEETHEWLDSEEAILEKAPLLQREEIEGWKAIWSEEGGWLAAAKAINAIGEELQRQGVRFGFGGAGSFKRPLFADDGTTCIGVETVDGTQYHADKVVLAAGAWSPALVDLEEQCCSKAWVYAHMQLTPEEAAVYKGCPVVYHGDVGFFFEPNENGVIKVCDEFPGFTRFKQHQPYGAPAPKPVSVPRSHAKHPTDTYPDASEESIKRAVSTFLPRFKDKPLFNRALCWCTDTADSALLICEHPRWKNFILATGDSGHSFKLLPIIGKHVVELVEGRLADDLAEAWRWRPGQGDARKSIRAAPAKDLADMPGWKHDQDSESR
B26: NvFX-62D/106K/110L (protein)
chain: B25 chain with R62D, G106K, E110L
B27: fructosyl peptide oxidase derived from Phaeosphaeria nodorum (protein)
chain: MAPSRANTSVIVVGGGGTIGSSTALHLVRSGYTPSNVTVLDAYPIPSSQSAGNDLNKIMGVSLRNPVDLQLALEARQMWNEDELFKKFFHNTGRLDCAHGEKDIADLKSGYQALVDAGLDATNEWLDSEDEILKRMPLLSRDQIKGWKAIFSKDGGWLAAAKAINAVGEYLRDQGVRFGFYGAGSFKAPLLAEGVCIGVETVDGTRYYADKVVLAAGAWSPTLVELHEQCVSKAWVYGHIQLTPEEAARYKNSPVVYNGDVGFFFEPNEHGVIKVCDEFPGFTRFKMHQPFGAKAPKRISVPRSHAKHPTDTIPDASDVSIRRAIATFMPQFKNKKMFNQAMCWCTDTADAALLICEHPEWKNFVLATGDSGHSFKLLPNIGKHVVELLEGTLADDLAHAWRWRPGSGDALKSRRSAPAKDLADMPGWNHDKPRANL

Where a chain is given by its changes, count along the chain named. Numbers in names are those of the source.

In the first data set the target is T1, α-fructosyl-valyl-histidyl-leucyl-threon ….
Settings: not given
Take B1: the αF6P oxidation activity ratio (relative value (CFP-T7-H2 = 100)) was 120. For the protein B2, the αF6P oxidation activity ratio (relative value (CFP-T7-H20 = 100)) was determined as 7.

For the protein B3, the αF6P oxidation activity ratio (relative value (CFP-T7-H6 = 100)) came out at 2. B4 came in with a Specific activity (U/mg), 1 mM αF6P of 4.65 U/mg. On to B5, for which the αF6P oxidation activity ratio (relative value (CFP-T7-H20 = 100)) is 24. Consider B6, for which the αF6P oxidation activity ratio (relative value (CFP-T7-H6 = 100)) is 207. The same measure, in the same setting: the value for B7 was 951. Take B8: the αF6P oxidation activity ratio (relative value (CFP-T7-H20 = 100)) was 142 and the αF6P oxidation activity ratio (relative value (CFP-T7-H26 = 100)) stood at 100. Take B9: the αF6P oxidation activity ratio (relative value (CFP-T7-H6 = 100)) stood at 183. On to B10, for which the αF6P oxidation activity ratio (relative value (CFP-T7-H2 = 100)) was found to be 11.

As to B11, the αF6P oxidation activity ratio (relative value (CFP-T7-H6 = 100)) was found to be 17. Turning to B12, the αF6P oxidation activity ratio (relative value (CFP-T7-H6 = 100)) turned out to be 301. As for B13, the αF6P oxidation activity ratio (relative value (CFP-T7-H26 = 100)) is 117 and the αF6P oxidation activity ratio (relative value (CFP-T7-H28 = 100)) was 100.

Protein B14 yielded a Specific activity (U/mg), 1 mM αF6P of 7.19 U/mg. In the case of B15, the αF6P oxidation activity ratio (relative value (CFP-T7-H2 = 100)) turned out to be 21. B16: the αF6P oxidation activity ratio (relative value (CFP-T7-H20 = 100)) was 123. For the protein B17, the αF6P oxidation activity ratio (relative value (CFP-T7-H26 = 100)) amounted to 102. For B18, the αF6P oxidation activity ratio (relative value (CFP-T7-H6 = 100)) stood at 636. Consider B19, for which the αF6P oxidation activity ratio (relative value (CFP-T7-H2 = 100)) came to 513 and the αF6P oxidation activity ratio (relative value (CFP-T7-H6 = 100)) is 100. Turning to B20, the αF6P oxidation activity ratio (relative value (CFP-T7-H2 = 100)) is 100.

For the protein B21, the αF6P oxidation activity ratio (relative value (CFP-T7-H6 = 100)) amounted to 44. Protein B22 yielded a Specific activity (U/mg), 1 mM αF6P of 0 U/mg. The same measure, in the same setting: the same measure for B23: 0.0043 U/mg; for B24: 0.0022 U/mg; for B25: 0 U/mg. Same read-out and setting: the same measure for B26: 0.003 U/mg; for B27: 0.0091 U/mg.

The data set is the same for the next values; noted with them: scale: relative value.
B6: the αF6P oxidation activity is 4.33. On to B7, for which the αF6P oxidation activity turned out to be 12.5. Same read-out and setting: the same measure for B8: 84.3; for B9: 4.22; for B13: 134.

In turn, B16 had a αF6P oxidation activity of 86.7. Same read-out and setting: the value for B17 was 111; that for B18 was 11.6; that for B19 was 3. Protein B20 returned a αF6P oxidation activity of 0.0735.
